Assay results published in the nanobody polyreactivity screen of Harvey et al. (2022).

assay: yeast display, Sf9 membrane polyspecificity reagent, FACS + sequencing; frameworks hold sequencing errors
Method in brief: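 Galactose induction of a Saccharomyces cerevisiae BJ5465 synthetic nanobody display library ran 36–48 hours. The cells were then stained for 1 hour at 4 °C with 10% biotinylated, detergent-solubilized Sf9 membrane reagent, pulled down on streptavidin microbeads and FACS-sorted into low and high (top ~1%) gates on expression and reagent-binding fluorescence. Labels for polyreactivity follow the gate of origin.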

Sequence	polyreactivity (PSR sort gate)
QVPLVESGGGLVQAGGSLRISCAACGIIFFPYAMGWYRQAPGKEREFVAAITSRGGSTYYADSVKGRFTISRDNAKNTVYLQMNSLKPEDTAVYFCAADHLGRARGPWRYNYWGQGTQVTVSS	low polyreactivity
QVQLVESGGGLVQAGGSLRLSCAASGSTFSSYAMGWYRQAPGKERELVAATYYADSVKGRFTISRDNAKNTVYLQMNSLKPEDTAVYYCNADNAYQGGKEYDYWGQGTQVTVSS	low polyreactivity
QVQLVESGGGLVQAGGSLRLSCAASGRIFFYYAKGWSRQAPGKARELVAAINRGGRTYYADSVKGRFTISRDNAKNTVYLQMNSLKPEDTADYYCAADCHTAKSNFDYWGQGTQVTVSS	low polyreactivity
QVQLVESGGGLVQAGGSLRLSCAASGSTFVYYDMGWYRQAPGKERELVADISDSGGSTNYADSVKGRFTISRDNAKNTVYLQMNSLKPEDTAVYYCAADSADPTEYDYWGQGTQVTVSS	low polyreactivity
QVQLVESGGGLVQAGGSLRLSCAASGFIFVRNAMGWYRQAPGKEREFVAAITRSGGSTYYADSVKGRFTISRDNAKNTVYLQMNCLKPEDTAVYYCAVLYHSRDRYTYRDEDYWGQGTQVTVSS	low polyreactivity
QVQLVESGGGLVQAGGSLRLSCAASGRIFGFYAMGWYRPAPGKERELVARITLSGGRTYYADSVKGRFTISRDNAKNTVYLQMNSLKPEDTAVYYCAADSIGRLWGYGYWGQGTQVTVSS	high polyreactivity
QVQLVESGGGLVQAGCSLRLSCAASGSTFFRYAMGWYRQAPGKERELVAAITSGGNTYYADSVKGRFTISRDNAKITVYLQMNSMKPEDTAVYYCAADVYHWIHEYDYWGQGTQVSVSS	low polyreactivity
QVQLVESGGGLVQAGGSLRLSCAASGITFDDYDMGWYRQAPGKEREFVAAISFSGSSTYYADSVKGRFTISRDNAKNTVYLQMNSLKPEDTAVYYCNADYVYSGGRYYGKDYWFDYWGQGTQVTVSS	low polyreactivity
QVQLVESGGGLVQAGGSLRLSCAASGSIFEWYAMGWYRQAPGKERELVADISSVGSTYYADSVKGRFTISRDNAKNTVYLQMNSLKPEDTAVYYCNTTYIIWYDSWGQGTQVTVSS	low polyreactivity
QVQLVESGGGLVQAGGSLRLSCAASGRTFRGNAMGWNRQTHGKERELVAAISWSGGRTYYADSVKGRFTISRDNAKNSVYLQMNSLKPEDTAVYDCAAVVPKYGQAGYDYWGQGTQVSVSS	high polyreactivity
QVQLVESGGGLVQAGGRLRLICAASGFIFWKNAMGWYRQSPGKQRELVAAISTRGGSTYYADSVKGRFTISRDNAKNSVYLQMNSLKPEDTAVYYCNKEWYQYKHNYWGQGTQVSVSS	low polyreactivity
QVQLVESGGGLVQAGGSLRLSCAASGSTFVTYTMGWYRQAPGKEREFVATISRSGCSTYYADSVKGRFTISRDNAKNTVYLQMNSLKPEDTAVYYCAAVRLVISKYWYIPYDYWGQGTQVTVSS	low polyreactivity
QVQLLESGGGLVQAGGSLRLCCASSGYIFWGANMGWYRQAPGKEREFVAAIGHGTVTCYADSVKGRFTISRDNAKNTVYLQMNSLKPEDTAVYNCAAYSDVRKPHRYWGQGTQVTVVS	high polyreactivity
QVQLVESGGGLVQAGGSLRLICAASGRIFRANAMGWYRQAPGQERELVATITISGGSTYYADSVKGRFTISRDNAKNTVYLQMNCLKPEDTAVYYCNAGHTLTFVPRPAYYSMYYWGQGTQVTVSS	low polyreactivity
QVQLVESGGGLVQAGGSLRLSCAASGFIFWYNAMGWYRQAPGKERELVAAITTAGSTNYADSVKGRFTISRDNAKNTVYLQMNSLKPEDTAVYYCAAVSSYWGQGTQVTVSS	low polyreactivity
QVQLVESGGGLVQAGGSLRLSCAASGSIFAPYAMGWYRQAPGKERELVAAINNNGGRTYYADSVKGRFTISRDNAKNTVYLQMNSLKPEDTAVYYCAADIYPDWIYLLYGYWGQGTQVTVSS	low polyreactivity
QVQLVESGGGLVQAGGSLRLSCAASGLIFDLYAMGWYRQAPGKERELVAAITWSGGSTYYADSVKGRFTISRDNAKNTVYLQMNSLKPEDTAVYYCAAETHLWYDFDYWGQGTQVTVSS	high polyreactivity
QVQLVESGGGLVQAGGSLRLSCAASGFTFYPYAMGWYRQAPGKERELVATISSGGTTNYADSVKGRFTISRDNAKNTVYLQMNSLKPEDTAVYYCAADYIRLFGPFDYWGQGTQVTVSS	low polyreactivity
QVQLEESGGGLVQAGGSLRLSCAASGFTFWLYAMGWYRQAPGKEREFVAAISTSGGSTYADSVKGRFTISRDNAKNTVYLQMNSLKPEDTAVYYCNAGYLLYYDYHLFYWGQGTQVTVSS	low polyreactivity
QVQLVESGGGLVQAGGSLRLSCAASGLTFRYNAMGWYRQATGKERELVARISRNGGRTYYADSVKGRFTISRDNAKNTVYLQMNSLKPEDTAVYYCNVVYFVTTSPGYDYWGQGTQVTVSS	high polyreactivity
QVQLVESGGGLVQAGGSLRLSCAASGSNFTQYAMGWYRQAPGTERELVAAISSGTRTYYADSVKGRFTISRDNAKNTVYVQMNSLKPEDTAVYYCAARYRSYFYWSGYWGHGTQVTVSS	low polyreactivity

Sequence	polyreactivity (PSR sort gate)
QVQLVESGGCLVQAGGSLRLSCAASGRMFWSNARGWYRQARGYERELVAAMRNTGSTYYADSVKGRFTISRDNAKNTVYLQMNSLKPEETAVYYCATKPYPYYLYYYWGQGTQVTVSS	high polyreactivity
QVQLVESGGGLVQAGGSLRLSCAASGRIFLYYAMGWYRQAPGKERELVAAITSSGGGTYYADSVKGRFTISRDNAKNTVYLQMNSLKPEDTAVYYCAARRRSQWRYYYWGQGTQVTVSS	high polyreactivity
QVQLVESAAGLVQAGGSLRLSCAASGFIFHCNAMGWSRQAPGKERELVAAISDTADITHYADSVKGRFTISRDNAKNTVYLQMNSLKPEDTAVYFCNAGSGVQVVWYKPYREYEYWGQGTQVTVSS	low polyreactivity
QVQLVESGGGLVQAGGSLRLSSAASGSIQFRNAMRWYRHAPGKERELVAAITVSGGSTYYADSVKGRFTISRDYAKNRVYLQMNSLKPEDNAVYLCAAVYLLRYSQFDYWGQGTQVTESS	low polyreactivity
QVQLVESGGGLVQAGGSLRLSCAASGSTFLVYARGWYRQAPGKERELVADITSRGGSTYYADSVKGRFTISRDNAKNTVYLQMNSLKPEDTAVYYCAALKRVVLFDYWGQGSQVTVSS	low polyreactivity
QVQLVESGGGLVQAGGSLRLSCAASGLTFWANTMGWCRQAPGKEREFVAAITWSGGSTYYADSVKGRFTISRDNAKNTVNLQMNSLKPEDTAVYYCAADEDFAAGYSYYYWGQGSQVTVSS	low polyreactivity
QVQLVESGGGLVQAGGSLRLICAASGRTFRYNAMGWYSQPHRKERELFAAINGGGSTYYADTVKGRFTISRDNAKNTVFLQMKSLKPEDTAVYYCAAANWRRNDYRYRFDYWGQGTQVTVSS	high polyreactivity
QVQLVESGGGLVQAGGSLRLSCAASGRTFYGYVMGWYRQAPGQERELVAAISRSVGSTYYADSVKGRFTISRDNAKNTVYLQMNSLKPEDTAVYYCATSVYGGVDYWGQGTQVTVSS	high polyreactivity
QVQLVESGGGLVQAGGSLRLSCAASGLIFYTYAMGWYRQAPGKEREFVAAISRRGGSTYYADSVKGRFTISRDNAKNTVYLQMNSLKPEDTAVYYCNARYTYPRPYEEYYYWGQGTQVTVSS	high polyreactivity
QVQLVESGGGLVQAGGSLRLSCAASGIIFAYYAMGWYRQAPGKERELVGTNYADSVKGRFTISRDNAKNTVYLQMNSLKPEDTAVYYCNTEWTSLSKSSLGGRYDHWGQGTQVTVSS	low polyreactivity
QVQLVESGGGLVQAGGSLRLSCAASGITFYDNAMGWYRPAPGKERELVAGISYDGDSTYADSVKGRFTISRDNAKNTVYLQMNSLKPEDTAVYYCAALGPYDWLWAGDYWGQGTQVTVSS	low polyreactivity
QVQLVESGGGLVQARGSLRLSCAASGFTFDQYTMGWYRQAPGKERELVAAISSSGGSTYYADSVKGRFTISRDNAKKTVYLQMNSLKPEDTAVYYCAARFLLTQRFSHDYWGQGTQVTVSS	low polyreactivity
QVQLVESGGGLVQAGGSLRLSCAASGRIFSRNAMGWYRQAPGKERELVAAISRSGTSTYYADSVKGRFTISRDNAKNTVYLQMNSLKPEDTAVYYCAADYPAVISIRRYDYWGQGTQVTVSS	low polyreactivity
QVQLVESGGGLVQAGGSLRLSCAASGFTFRDYAMGWYRQAPGKERELVAAITRGGSTNYADSVKGRFTISRDNAKNTVYLQMNSLKPEDTAVYYCAATPSWRWHVFAEFNSWGQGTQVTVSS	high polyreactivity
QVQLVESGGGLVQAGGSLRLSCAASGLIFSRYAMGWYRQAPGKERELVAAITYRTVRTYYADSVKGRFTISRDNAKNTVYLQMNSLKPEDTAVYYCAADSARQRDYWGQGTQVTVSS	high polyreactivity
QVPLEESGGGLVQAGGSLRLSCAASGSIFMTYSMGWYRKAPGNERELVAAISWRGGSTYYADSVKGRFTISRDNAKNTVYLQMNSMKPVDTAVYYCAADYYRYGYQGSTTEDDYWGQGTLVTVSS	low polyreactivity
QDQIVESGGGLVQAGGSLRISCAPSGSILGYYGMGWYRQAPGKERELVAAISSSGNTNYADSVKGRFTISRDNAKNTVYFQMNSLKPDDTAVYYCAASFQYVAYFLYVYWGQGTQVTVSS	low polyreactivity
QVQLVESGGGLVQAGGSLRLSCAASGFIFRYNAMGWYRQAPGKERELVAAISSSGGSTYYADSVKGRFTISRDNAKNTVYVQMNSLKPEDTAVDYCNAYNYGYIGYGYNYWGQGTQVTVSS	high polyreactivity
QVQLVESGGGLVQAGGSLRLSCASSGITFVRYAMAWYRPAPGKERELVAVISRGGITNYADSVKGRFTISRDNAKNTVYFQMNSLKPEDTGVYYCNREKRIRSSGGLYYWGQGTQVSVSS	high polyreactivity
QVQLVESGGGLVQAGGSLRLSCAASGRTFSYYAMGWYRQAPGKERELVASIRKSGASTYYADSVKGRFTISRDNAKNTVYLQMNSLKPEDTAVYYCNTAGWSFYSGRYDYWGQGTQVTVSS	high polyreactivity
